Laboratory results as given in publication PMC8811885 (ACS Omega, 2022).

Target: the molecule itself
Assay: SEC-MALS

B1: human ELP1 with a C-terminal 3xFLAG tag (natural protein, UniProt O95163 1-1332, looked up)
chain: MRNLKLFRTLEFRDIQGPGNPQCFSLRTEQGTVLIGSEHGLIEVDPVSREVKNEVSLVAEGFLPEDGSGRIVGVQDLLDQESVCVATASGDVILCSLSTQQLECVGSVASGISVMSWSPDQELVLLATGQQTLIMMTKDFEPILEQQIHQDDFGESKFITVGWGRKETQFHGSEGRQAAFQMQMHESALPWDDHRPQVTWRGDGQFFAVSVVCPETGARKVRVWNREFALQSTSEPVAGLGPALAWKPSGSLIASTQDKPNQQDIVFFEKNGLLHGHFTLPFLKDEVKVNDLLWNADSSVLAVWLEDLQREESSIPKTCVQLWTVGNYHWYLKQSLSFSTCGKSKIVSLMWDPVTPYRLHVLCQGWHYLAYDWHWTTDRSVGDNSSDLSNVAVIDGNRVLVTVFRQTVVPPPMCTYQLLFPHPVNQVTFLAHPQKSNDLAVLDASNQISVYKCGDCPSADPTVKLGAVGGSGFKVCLRTPHLEKRYKIQFENNEDQDVNPLKLGLLTWIEEDVFLAVSHSEFSPRSVIHHLTAASSEMDEEHGQLNVSSSAAVDGVIISLCCNSKTKSVVLQLADGQIFKYLWESPSLAIKPWKNSGGFPVRFPYPCTQTELAMIGEEECVLGLTDRCRFFINDIEVASNITSFAVYDEFLLLTTHSHTCQCFCLRDASFKTLQAGLSSNHVSHGEVLRKVERGSRIVTVVPQDTKLVLQMPRGNLEVVHHRALVLAQIRKWLDKLMFKEAFECMRKLRINLNLIYDHNPKVFLGNVETFIKQIDSVNHINLFFTELKEEDVTKTMYPAPVTSSVYLSRDPDGNKIDLVCDAMRAVMESINPHKYCLSILTSHVKKTTPELEIVLQKVHELQGNAPSDPDAVSAEEALKYLLHLVDVNELYDHSLGTYDFDLVLMVAEKSQKDPKEYLPFLNTLKKMETNYQRFTIDKYLKRYEKAIGHLSKCGPEYFPECLNLIKDKNLYNEALKLYSPSSQQYQDISIAYGEHLMQEHMYEPAGLMFARCGAHEKALSAFLTCGNWKQALCVAAQLNFTKDQLVGLGRTLAGKLVEQRKHIDAAMVLEECAQDYEEAVLLLLEGAAWEEALRLVYKYNRLDIIETNVKPSILEAQKNYMAFLDSQTATFSRHKKRLLVVRELKEQAQQAGLDDEVPHGQESDLFSETSSVVSGSEMSGKYSHSNSRISARSSKNRRKAERKKHSLKEGSPLEDLALLEALSEVVQNTENLKDEVYHILKVLFLFEFDEQGRELQKAFEDTLQLMERSLPEIWTLTYQQNSATPVLGPNSTANSIMASYQQQKTSVPVLDAELFIPPKINRRTQWKLSLLD
stoichiometry N: 2
